B1: A023: house dust mite protein; SEQ ID NO: 23 (Der f), 24 (Der p) (protein)
chain: DPVQQRPTLRGVTVRVGPFVKENNGKFEGFIPDLVQAISEKVGFDYTLYLSPDGRYGNVISDGNVTGMIGEVYNKKADFAAADLTMTEARENYITFTEPFMINQLAALIRREDAEGLNTLEDLAKAQETFPKRKRIVLGTLRNGATNYFLSKSDDPLAKKIYEQIKADDQSVVKSISEGVERVDKQGGYAFIMESASAEHEIANNCKLTMLLDWRNLFPRKYAFALPKDSPYLEHFNNAIKQLNSEGKIAELRRKYWANNCAENKTKDDKN
B2: A025: house dust mite protein; SEQ ID NO: 17 (Der f), 18 (Der p) (protein)
chain: QSLFVDYNDYSCGSSQNETNELIQEFKIFKKNINGNENFKKINDFIEKARLFRDNAAKQMLEIDQQLLTLNVIQISQRIKLENNKIQCEKLTKFSELLSMQLLAYEVGMFEFAEEIDPNIDFDRKMKNFLDETSRLFNLAEFEKLEKKFRNATSIEKLKNYIDGELVALNDYINEFLKDIIMSEFTVQSRYYLNFSIEDQVQIDSTLMTFSALKILLNDLKDYLEHLDN
B3: A020: house dust mite protein; SEQ ID NO: 15 (Der f), 16 (Der p); Blo t SEQ ID NO: 316 printed as A0019 (protein)
chain: MSKPIFYYHPFSGPCRTVSTVAKILNVDMEMKKLDLLTKEHLNPEFLKVNPFHKVPTFVDSDGFVVDESRVIAMYLVESRKPDSFLYPKNDLKKRIQIDRWLHYDINLSTTISAPMFCVFRGHQVQDYQVEQGKETLKTLDGVMQSFEGKFLTGADQFTLADIAMYFSLNTMEVYPKYFKFDDYPNLKSWYHRVAEALKQYDTEGTIPKAIETMKQFIQQRAAEAEKH

These molecules were tested on basophils in whole blood from HDM allergic donors (assay: Basophil Activation Test (BAT)). Conditions: 1 ng/ml; blood from HDM allergic individuals (n=14).
Format: cell-based, human
Procedure, shortened: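 Basophil activation was read by flow cytometry as increased surface activation markers. The stimulus was a 1 h exposure of blood from 14 HDM-allergic donors to test proteins or major mite allergens at graded concentrations (e.g. 1–1000 ng/ml).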

Row | Molecule | # of individuals of 14 with positive BAT test
1 | B1 | 1
2 | B2 | 1
3 | B3 | 0

Same assay, conditions: 10 ng/ml; blood from HDM allergic individuals (n=14)

Row | Molecule | # of individuals of 14 with positive BAT test
4 | B1 | 1
5 | B2 | 1
6 | B3 | 1

Same assay, conditions: 100 ng/ml; blood from HDM allergic individuals (n=14)

Row | Molecule | # of individuals of 14 with positive BAT test
7 | B1 | 1
8 | B2 | 1
9 | B3 | 1

Same assay, conditions: 1000 ng/ml; blood from HDM allergic individuals (n=14)

Row | Molecule | # of individuals of 14 with positive BAT test
10 | B1 | 1
11 | B2 | 5
12 | B3 | 1

Each molecule was assayed on T cell lines obtained from HDM allergic individuals and non-allergics (assay: In vitro T cell proliferation test in T cell lines (Example 3)). Conditions: T cell lines from HDM allergic individuals (n=30); 0.5 or 2 ug/ml; 72 h.
Format: cell-based, human
Procedure, shortened: (§1)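 Freshly isolated PBMC (5×10^6/ml) from mite-allergic patients or non-allergics cultured 5 days with test protein up to 10 ug/ml; IFN-gamma, IL-9, IL-10, IL-17, IL-31 in supernatants by multiplex immunoassay. T cell lines, raised 3 weeks on HDM extract, tested at 0.5 or 2 ug/ml protein in 72 h proliferation assay.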

Row | Molecule | % responders of in-vitro T cell proliferation test, Allergic [%]
13 | B1 | 21
14 | B2 | 0
15 | B3 | 18

Same assay, conditions: T cell lines from non-allergics (n=8); 0.5 or 2 ug/ml; 72 h

Row | Molecule | % responders of in-vitro T cell proliferation test, Non-allergics [%]
16 | B1 | 0
17 | B2 | 0
18 | B3 | 25

These molecules were tested on PBMC cells obtained from mite allergic patients and non-allergics (assay: Ex vivo stimulation of PBMC: cytokine production (IFN-gamma, IL-9, IL-10, IL-17, IL-31)). Conditions: HDM allergic individuals; IL-5.
Format: cell-based, human
Procedure, shortened: as §1

Row | Molecule | % HDM allergic individuals with cytokine production in ex-vivo T cell assay IL-5 [%]
19 | B1 | 13
20 | B2 | 13
21 | B3 | 6

Same assay, conditions: HDM allergic individuals; IL-9

Row | Molecule | % HDM allergic individuals with cytokine production in ex-vivo T cell assay IL-9 [%]
22 | B1 | 13
23 | B2 | 6
24 | B3 | 0

Same assay, conditions: HDM allergic individuals; IL-10

Row | Molecule | % HDM allergic individuals with cytokine production in ex-vivo T cell assay IL-10 [%]
25 | B1 | 6
26 | B2 | 6
27 | B3 | 25

Same assay, conditions: HDM allergic individuals; IL-13

Row | Molecule | % HDM allergic individuals with cytokine production in ex-vivo T cell assay IL-13 [%]
28 | B1 | 13
29 | B2 | 13
30 | B3 | 6

Same assay, conditions: HDM allergic individuals; IL-17

Row | Molecule | % HDM allergic individuals with cytokine production in ex-vivo T cell assay IL-17 [%]
31 | B1 | 0
32 | B2 | 0
33 | B3 | 6

Same assay, conditions: HDM allergic individuals; IL-31

Row | Molecule | % HDM allergic individuals with cytokine production in ex-vivo T cell assay IL-31 [%]
34 | B1 | 0
35 | B2 | 0
36 | B3 | 0

Same assay, conditions: HDM allergic individuals; INF-g

Row | Molecule | % HDM allergic individuals with cytokine production in ex-vivo T cell assay INF-g [%]
37 | B1 | 0
38 | B2 | 0
39 | B3 | 0

Same assay, conditions: non-allergic individuals; IL-5

Row | Molecule | % non-allergic individuals with cytokine production in ex-vivo T cell assay IL-5 [%]
40 | B1 | 0
41 | B2 | 0
42 | B3 | 0

Same assay, conditions: non-allergic individuals; IL-9

Row | Molecule | % non-allergic individuals with cytokine production in ex-vivo T cell assay IL-9 [%]
43 | B1 | 0
44 | B2 | 0
45 | B3 | 0

Same assay, conditions: non-allergic individuals; IL-10

Row | Molecule | % non-allergic individuals with cytokine production in ex-vivo T cell assay IL-10 [%]
46 | B1 | 0
47 | B2 | 0
48 | B3 | 0

Same assay, conditions: non-allergic individuals; IL-13

Row | Molecule | % non-allergic individuals with cytokine production in ex-vivo T cell assay IL-13 [%]
49 | B1 | 0
50 | B2 | 0
51 | B3 | 0

Same assay, conditions: non-allergic individuals; IL-17

Row | Molecule | % non-allergic individuals with cytokine production in ex-vivo T cell assay IL-17 [%]
52 | B1 | 0
53 | B2 | 0
54 | B3 | 0

Same assay, conditions: non-allergic individuals; IL-31

Row | Molecule | % non-allergic individuals with cytokine production in ex-vivo T cell assay IL-31 [%]
55 | B1 | 0
56 | B2 | 0
57 | B3 | 0

Same assay, conditions: non-allergic individuals; INF-g

Row | Molecule | % non-allergic individuals with cytokine production in ex-vivo T cell assay INF-g [%]
58 | B1 | 0
59 | B2 | 0
60 | B3 | 17
